Read-outs that look alike come from different tables or passages of the source.
Key:
GST-EphA2 [1] = target: GST-EphA2 (UniProt P29317); assay: ELISA; as the ELISA on GST-EphA2-coated plates, gH/gL or gB incubated in the presence of IFITM1 (concentration of IFITM1 not stated)
GST-EphA2 [2] = target: GST-EphA2 (UniProt P29317); assay: ELISA; 200 ng GST-EphA2 coated on 96-well plates overnight at 4 °C, blocked with 5% BSA in PBS; gradient concentrations of 6×His proteins, 2 h at room temperature; anti-His or anti-GST antibody, HRP secondary, absorbance at 450 nm
GST-EphA2 [3] = target: GST-EphA2 (UniProt P29317); assay: as above; remark: listed apart in the source

Substance	EC50 with IFITM1 (GST-EphA2 [1]) [µM]	EC50 (GST-EphA2 [2]) [µM]	EC50 (GST-EphA2 [3]) [µM]
6×His-gH/gL (from UniProt P03231 19-706; P03212 23-137) (complex)	0.0757	0.0335	0.032
soluble 6×His-IFITM1 fusion protein (sIFITM1) (from UniProt P13164 1-125) (natural protein)		0.0154	

From article PMC11087256
